Test results as given in patent publication US20200325187A1 (Genentech, published 2020).
Read-outs that look alike come from different tables or passages of the source. Non-standard residues stand in square brackets, D forms with d. No end group written: not given here. Nle = CCCC[C@H](N)C(=O)O

Experiments:
[1] = molecular target: T1, hVEGF-A Q89A (human, UniProt P15692-4 34-135, Q89A); experiment: SPR
T1 construct: position probably counted on the mature protein
T1 sequence (looked up): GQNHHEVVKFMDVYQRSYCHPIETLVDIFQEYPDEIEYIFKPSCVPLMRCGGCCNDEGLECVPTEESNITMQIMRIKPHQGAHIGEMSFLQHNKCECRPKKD
Method: (§1) Depending on the format of the assay either a streptavidin sensor (SA) or a dextran-coated (CM5) sensor was utilized as described below.
(§2) Reaction was then quenched by addition of 10 molar excess of Glycine pH 8.0 and the sample was buffer exchanged into PBS using an Amicon 0.5 mL 3000 MWCO ultra-centrifugal filters (EMD Millipore). The biotinylation state of the protein was verified by LC-MS analysis. Biotinylated VEGF-A was then captured on the surface until a resonance unit (RU) signal of about ˜400. For immobilization of VEGF-A on CM5 sensor, the surface was first activated with a mixture of N-ethyl-N′-(3-dimethylaminopropyl)carbodiimide hydrochloride and N-hydroxysuccinimide (EDC/NHS) according to the supplier instructions. VEGF-A was then diluted into coupling buffer (0.1 M Acetate Buffer, pH 5.0) and injected until the signal reached about ˜400 RU followed by a wash with 1 M ethanolamine pH 8.0 to quench remaining activated sites.

[2] = molecular target: T2, hVEGF-A (human, UniProt P15692-4 27-191, limits assumed); experiment: SPR
T2 construct: also called human VEGF-A; WT
Method: as §1, §2

[3] = molecular target: T3, hVEGF-A Y21A (human, UniProt P15692-4 34-135, Y21A); experiment: SPR
T3 construct: position probably counted on the mature protein
T3 sequence (looked up): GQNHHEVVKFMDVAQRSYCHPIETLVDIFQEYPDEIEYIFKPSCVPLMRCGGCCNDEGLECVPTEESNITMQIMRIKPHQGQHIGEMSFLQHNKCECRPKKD
Method: as §1, §2

[4] = molecular target: T4, hVEGF-A K48A (human, UniProt P15692-4 34-135, K48A); experiment: SPR
T4 construct: position probably counted on the mature protein
T4 sequence (looked up): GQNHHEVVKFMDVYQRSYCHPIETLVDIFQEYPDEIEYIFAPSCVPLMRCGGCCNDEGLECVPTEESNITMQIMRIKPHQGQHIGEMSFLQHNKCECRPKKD
Method: as §1, §2

[5] = molecular target: T5, hVEGF-A (8-109) (human, UniProt P15692 214-315); experiment: SPR
T5 sequence (looked up): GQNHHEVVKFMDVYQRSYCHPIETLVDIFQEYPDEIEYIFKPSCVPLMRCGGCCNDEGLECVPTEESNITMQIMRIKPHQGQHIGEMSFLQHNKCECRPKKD
Method: as §1, §2

[6] = molecular target: human VEGF-A 165 (human, UniProt P15692-4 27-191); experiment: SPR
Method: as §1, §2

[7] = molecular target: T6, mouse VEGF-A 164 (mouse, UniProt Q00731-2 27-190); experiment: SPR
T6 construct: also called mouse 164
T6 sequence (looked up): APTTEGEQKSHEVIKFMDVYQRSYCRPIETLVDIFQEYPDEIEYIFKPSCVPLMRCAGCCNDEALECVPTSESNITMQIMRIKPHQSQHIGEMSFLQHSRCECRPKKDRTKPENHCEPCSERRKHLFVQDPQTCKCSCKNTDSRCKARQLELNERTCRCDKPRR
Method: as §1, §2

[8] = molecular target: T7, rat VEGF-A (rat, UniProt P16612-2 27-190, limits assumed); experiment: SPR
T7 construct: also called rVEGF
T7 sequence (looked up): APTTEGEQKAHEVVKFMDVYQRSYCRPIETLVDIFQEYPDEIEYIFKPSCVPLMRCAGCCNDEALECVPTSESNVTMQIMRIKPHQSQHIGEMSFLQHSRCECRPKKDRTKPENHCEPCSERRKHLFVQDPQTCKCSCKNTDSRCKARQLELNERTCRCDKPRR
Method: as §1, §2

[9] = molecular target: T8, rabbit VEGF-A (rabbit, UniProt G1T1L9 1-398); experiment: SPR
T8 sequence: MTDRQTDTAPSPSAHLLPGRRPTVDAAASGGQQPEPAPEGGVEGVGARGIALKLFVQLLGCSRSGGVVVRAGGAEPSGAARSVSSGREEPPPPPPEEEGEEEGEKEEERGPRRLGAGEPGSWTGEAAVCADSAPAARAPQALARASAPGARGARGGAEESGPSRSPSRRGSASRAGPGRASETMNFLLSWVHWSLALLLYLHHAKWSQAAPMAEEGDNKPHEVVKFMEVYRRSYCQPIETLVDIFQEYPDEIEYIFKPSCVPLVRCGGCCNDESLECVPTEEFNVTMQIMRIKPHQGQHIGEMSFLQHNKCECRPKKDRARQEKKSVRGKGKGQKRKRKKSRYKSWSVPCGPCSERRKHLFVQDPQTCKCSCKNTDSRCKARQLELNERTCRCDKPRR
Method: as §1, §2

[10] = molecular target: T2, hVEGF-A; experiment: SPR; remark: listed apart in the source
Method: as §1, §2

[11] = molecular target: T5, hVEGF-A (8-109); experiment: spot phage ELISA
How it was run: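 Phage clones from four selection rounds were grown overnight at 37 °C with M13-KO7 helper phage. Bound phage was detected with anti-M13-HRP and TMB, with binding to BSA alone run in parallel as background.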

[12] = molecular target: T2, hVEGF-A; experiment: cell-based or functional assay
[13] = molecular target: T2, hVEGF-A; experiment: cell-based or functional assay; remark: listed apart in the source
[14] = molecular target: T2, hVEGF-A; experiment: KDR-VEGF competition ELISA
[15] = molecular target: T2, hVEGF-A; experiment: phage competition ELISA, soluble CKP
[16] = molecular target: T5, hVEGF-A (8-109); experiment: phage competition ELISA (clone on phage; the concentration varied on the axis is that of hVEGF (8-109))
[17] = molecular target: T9, hVEGF-A (human), P15692; experiment: cell-based or functional assay
T9 chain: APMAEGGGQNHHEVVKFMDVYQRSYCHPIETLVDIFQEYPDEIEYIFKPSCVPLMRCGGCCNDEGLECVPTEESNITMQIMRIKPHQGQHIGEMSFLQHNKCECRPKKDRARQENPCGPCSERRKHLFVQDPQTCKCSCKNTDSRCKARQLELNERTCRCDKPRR

[18] = molecular target: Flt-1 (human, UniProt P17948 27-756, limits assumed); experiment: plate ELISA, growth factor coated
Sequence of Flt-1 (P17948 27-756 limits assumed): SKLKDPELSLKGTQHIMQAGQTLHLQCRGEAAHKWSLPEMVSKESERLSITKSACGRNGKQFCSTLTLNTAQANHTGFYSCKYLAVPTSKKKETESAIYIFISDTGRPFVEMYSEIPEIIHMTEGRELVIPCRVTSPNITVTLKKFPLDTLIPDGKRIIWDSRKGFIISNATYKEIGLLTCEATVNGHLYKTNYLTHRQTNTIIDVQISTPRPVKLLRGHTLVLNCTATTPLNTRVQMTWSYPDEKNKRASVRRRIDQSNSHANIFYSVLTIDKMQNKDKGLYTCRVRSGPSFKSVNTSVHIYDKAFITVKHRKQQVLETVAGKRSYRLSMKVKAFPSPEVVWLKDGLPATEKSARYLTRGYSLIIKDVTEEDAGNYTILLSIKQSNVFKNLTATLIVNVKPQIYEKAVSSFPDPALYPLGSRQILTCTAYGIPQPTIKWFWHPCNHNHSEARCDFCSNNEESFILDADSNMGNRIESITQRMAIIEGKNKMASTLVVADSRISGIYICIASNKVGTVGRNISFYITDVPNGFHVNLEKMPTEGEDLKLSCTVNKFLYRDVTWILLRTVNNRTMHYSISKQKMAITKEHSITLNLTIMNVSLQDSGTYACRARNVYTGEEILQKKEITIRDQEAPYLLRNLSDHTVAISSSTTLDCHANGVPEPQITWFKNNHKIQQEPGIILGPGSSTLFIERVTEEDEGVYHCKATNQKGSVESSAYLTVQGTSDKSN
Method: (§3) Binding specificity of each peptide was established by competition ELISA. […] After blocking with block buffer (PBS with 0.5% BSA and 0.05% TWEEN®20) for 2 hours at room temperature, the receptor-Fc fusions or biotinylated receptors were serially diluted using assay buffer (PBS with 0.5% BSA and 0.05% TWEEN®20) and incubated for 1 hour at room temperature. […] Competition ELISA was conducted in an identical fashion as described above except after blocking, a mixture of serially diluted peptide containing a constant concentration of receptor-Fc fusion or biotinylated receptor (concentration of receptor was set to EC₆₀) was added and incubated for 1 hour. All recombinant human proteins and antibodies were purchased from R &D Systems (Minneapolis, Minn.).

[19] = molecular target: T10, hVEGF-A (8-109) (human), P15692; experiment: spot phage ELISA; conditions: remark: other sources report otherwise
T10 chain: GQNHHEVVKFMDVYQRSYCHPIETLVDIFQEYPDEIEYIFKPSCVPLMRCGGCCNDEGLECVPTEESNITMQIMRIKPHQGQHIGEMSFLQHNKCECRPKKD

[20] = molecular target: T11, Flt-4 (human, UniProt P35916 25-776, limits assumed); experiment: plate ELISA, growth factor coated
T11 sequence (looked up): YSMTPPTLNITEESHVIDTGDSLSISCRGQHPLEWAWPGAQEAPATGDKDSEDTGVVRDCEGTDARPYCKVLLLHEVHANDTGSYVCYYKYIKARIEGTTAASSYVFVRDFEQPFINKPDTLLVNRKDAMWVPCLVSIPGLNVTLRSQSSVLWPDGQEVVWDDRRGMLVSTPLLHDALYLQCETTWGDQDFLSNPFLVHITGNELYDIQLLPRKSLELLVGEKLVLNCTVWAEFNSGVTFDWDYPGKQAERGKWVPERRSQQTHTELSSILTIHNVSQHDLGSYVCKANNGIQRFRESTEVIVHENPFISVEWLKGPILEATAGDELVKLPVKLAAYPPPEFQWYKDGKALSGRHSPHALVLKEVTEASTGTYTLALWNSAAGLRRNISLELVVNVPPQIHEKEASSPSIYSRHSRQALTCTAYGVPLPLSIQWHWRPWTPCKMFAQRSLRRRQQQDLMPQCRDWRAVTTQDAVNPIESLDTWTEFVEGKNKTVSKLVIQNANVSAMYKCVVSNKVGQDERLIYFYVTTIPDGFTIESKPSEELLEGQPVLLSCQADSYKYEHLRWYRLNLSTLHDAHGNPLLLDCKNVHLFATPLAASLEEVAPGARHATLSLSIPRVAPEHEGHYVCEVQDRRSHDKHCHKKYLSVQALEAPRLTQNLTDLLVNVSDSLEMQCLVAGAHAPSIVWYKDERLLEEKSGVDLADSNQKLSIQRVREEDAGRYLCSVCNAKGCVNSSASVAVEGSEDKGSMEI
Method: as §3

B1: VEGF_CKP9.54 (designed binder)
chain: GCNIMLPFWGCKQDSDCLAGCVCQYYQSCG
notes: also called EM54
- Kd [1]: 1880 nM
- Kd [2]: 55 nM
- Kd [3]: 317 nM
- Kd [4]: 22 nM
- Kd [5]: 176 nM
- kon [5]: 1.26e+06 M⁻¹ s⁻¹
- Kd [6]: 190 nM
- Kd [7]: 250 nM
- Kd [8]: 176 nM
- Kd [9]: 133 nM
- Kd [10]: 44 nM
- ELISA [11]: 2.1
- S/N vs BSA [11]: 28.4
- Cellular IC50 [12]: 188 nM
- Cellular IC50 [13]: 188 nM
- IC50 [14]: 5.8 nM
- IC50 [15]: 450 nM
- IC50 (read off the curve) [16]: ~4 nM

B2: 9.54.90.M5.Nle (designed binder)
chain: GCNI[Nle]LPFWGCGRDFECLAGCVCQYYQSCG
modifications: cysteine pairing not given here
- Cellular IC50 [17]: 1.95 nM

B3: PIGF-2 (ligand, human, UniProt P49763-3 19-170, looked up)
chain: LPAVPPQQWALSAGNGSSEVEVVPFQEVWGRSYCRALERLVDVVSEYPSEVEHMFSPSCVSLLRCTGCCGDENLHCVPVETANVTMQLLKIRSGDRPSYVELTFSQHVRCECRPLREKMKPERRRPKGRGKRRREKQRPTDCHLCGDAVPRR
notes: also called P1Gf-2; P1GF
- binding result [18]: binds

B4: VEGF_CKP9.22 (designed binder)
chain: GCQRTQPFWGCKQDSDCLAGCVCRWYQSCG
- ELISA [19]: 1.2
- S/N vs BSA [19]: 17.2

B5: VEGF-C (ligand, human, UniProt P49767 103-227, looked up)
chain: TEETIKFAAAHYNTEILKSIDNEWRKTQCMPREVCIDVGKEFGVATNTFFKPPCVSVYRCGGCCNSEGLQCMNTSTSYLSKTLFEITVPLSQGPKPVTISFANHTSCRCMSKLDVYRQVHSIIRR
- binding result [20]: binds
